We go through five proteins from article PMC3861479, “LipL41, a Hemin Binding Protein from Leptospira santarosai serovar Shermani” (PLoS ONE, 2013).

As usually defined, the stoichiometry N is a count of units in the complex or per binding partner.

Data set [1] deals with the molecule itself. Briefly: SEC + AUC; LipL41-C100 in solution; data not shown.
Data set [2] concerns the molecule itself. Put plainly: negative-stain transmission electron microscopy; 0.1 mg/ml LipL41 on a glow-discharged copper grid, 2% uranyl acetate; class averages with EMAN2.

Positions count from the first letter of the chain named. Names may count otherwise.

B1: LipL41-C100 with a TPR-containing fragment of residues 256-355 (domain or fragment)
chain: KDEDEEVKELLQEGYEEIVGETPSFKKAKEAWEKADKKAKGQSWGAKANLATYYFSIGDFEKSIKLYEEAMKLKDADKSYLRELRKRVEATFAVDESNAK
notes: source: E. coli, expression and purification similar to that of the wildtype
As for B1, the “stoichiometry N” value in data set [1] amounted to 2.

B2: LipL41 C140A/C220A (natural protein)
chain: AATVDVEYPVFPKDKEGRALQKFLGTIRNVGLAVEPPKKSLWEAIFGEGSSFIDQMPSKVFEAFDKESYYKLTDLSKRADILNEATLSLTGITKSRAKIGNLIGAEAILYIGYQKPYTEASTENKIDAVAAGIKVAGFVASAATGKDVNTGNDPVSKPTGVRMMLIPLDATLIKVETGEVKKAVVSSPAKIFNSVGNLEAPSILDSFGQGLDEAAAYIKGRLSPIVKTERIKVFVKDEDEEVKELLQEGYEEIVGETPSFKKAKEAWEKADKKAKGQSWGAKANLATYYFSIGDFEKSIKLYEEAMKLKDADKSYLRELRKRVEATFAVDESNAK
notes: also called cysteine double mutant; HRM-mutated LipL41; source: E. coli, expression and purification similar to that of the wildtype
For B2, in data set [2], the binding result is listed as “binds”.

B3: recombinant LipL41 (Ala21 - Lys355) with an N-terminal His6-tag (natural protein)
chain: B2 chain with A120C, A200C
notes: also called LipL41 wildtype; pRSET-LipL41; source: E. coli BL21(DE3), purified (Ni-NTA); copies: 36
For B3, the “stoichiometry N” value in data set [2] is 36.

B4: LipL41 C220A (natural protein)
chain: B2 chain with A120C
notes: also called HRM-mutated LipL41; source: E. coli, expression and purification similar to that of the wildtype
As for B4, the binding result in data set [2] was “binds”.

B5: LipL41 C140A (natural protein)
chain: B2 chain with A200C
notes: as for B4
On to B5, for which, in data set [2], the binding result is listed as “binds”.
